Test results from publication PMC8421203 (Nucleic Acids Research, 2021).
Changes are numbered by the printed parent chain.

Columns and labels:
[1] = target: Zebrafish PHF14PZP (278–487) (zebrafish); assay: ITC
[2] = target: PHF14 PZP domain, 278-487; assay: ITC; details: reference: unmodified H3(1-15) peptide; sites T3
[3] = target: T1, Zebrafish PHF14PZP (278–487) (zebrafish, UniProt A0A286Y9D1 278-487); assay: crystal structure
T1 sequence: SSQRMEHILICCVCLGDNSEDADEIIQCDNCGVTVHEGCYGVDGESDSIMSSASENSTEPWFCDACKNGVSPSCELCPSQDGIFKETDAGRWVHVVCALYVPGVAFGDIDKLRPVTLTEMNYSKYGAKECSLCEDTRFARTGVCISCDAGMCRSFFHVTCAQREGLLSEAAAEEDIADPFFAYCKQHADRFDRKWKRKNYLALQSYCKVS

Thermal shift assay = format: physicochemical; details: 2 mg/ml protein, 5× Sypro Orange, 100 mM NaCl, 20 mM HEPES-Na pH 7.5, 25°C to 90°C at 0.5°C per minute
PHF14PZP E301A = target: T2, PHF14PZP E301A (zebrafish, UniProt A0A286Y9D1 278-487, E301A); assay: ITC
T2 sequence: T1 sequence with E24A

unmodified histone H3(1–15) peptide (from UniProt P68431 2-16)
Kd [1]: 12.7 µM

histone H3 1-15 (from UniProt P68431) H3(1-15) T3ph peptide
KD [2]: lost; reference 12.7

B1: histone H3(1–13), as joined to PHF14PZP in the fusion protein (peptide)
peptide: ARTKQTARKSTGG
binding result [3]: binds

B2: H3(1–13)-PHF14PZP: chimeric protein: H3(1–13) fused to the N-terminus of PHF14PZP (aa 278–487) through an 'SGSGS' linker (protein)
chain: ARTKQTARKSTGGSGSGSSSQRMEHILICCVCLGDNSEDADEIIQCDNCGVTVHEGCYGVDGESDSIMSSASENSTEPWFCDACKNGVSPSCELCPSQDGIFKETDAGRWVHVVCALYVPGVAFGDIDKLRPVTLTEMNYSKYGAKECSLCEDTRFARTGVCISCDAGMCRSFFHVTCAQREGLLSEAAAEEDIADPFFAYCKQHADRFDRKWKRKNYLALQSYCKVS
modifications: left off: 10xHis-SUMO, N-terminal, cleaved
positive Tm shift versus free state PHF14PZP (Thermal shift assay): 3.2 °C

B3: unmodified histone H3(1–15) peptide (peptide)
peptide: ARTKQTARKSTGGKA
fold decrease of affinity against wild-type PHF14PZP (PHF14PZP E301A): ~28 fold
